In IntAct's records for PubMed 31515488:

B1: Microtubule-associated tumor suppressor candidate 2 (Homo sapiens), Q5JR59-3 (parent)
chain: MGHCCCKPYNCLQCLDKTNESALVKEKELSIELANIRDEVAFHTAKCEKLQKEKEELERRFEDEVKRLGWQQQAELQELEERLQLQFEAEMARLQEEHGDQLLSIRCQHQEQVEDLTASHDAALLEMENNHTVAITILQDDHDHKVQELMSTHELEKKELEENFEKLRLSLQDQVDTLTFQSQSLRDRARRFEEALRKNTEEQLEIALAPYQHLEEDMKSLKQVLEMKNQQIHEQEKKILELEKLAEKNIILEEKIQVLQQQNEDLKARIDQNTVVTRQLSEENANLQEYVEKETQEKKRLSRTNEELLWKLQTGDPTSPIKLSPTSPVYRGSSSGPSSPARVSTTPR
partner: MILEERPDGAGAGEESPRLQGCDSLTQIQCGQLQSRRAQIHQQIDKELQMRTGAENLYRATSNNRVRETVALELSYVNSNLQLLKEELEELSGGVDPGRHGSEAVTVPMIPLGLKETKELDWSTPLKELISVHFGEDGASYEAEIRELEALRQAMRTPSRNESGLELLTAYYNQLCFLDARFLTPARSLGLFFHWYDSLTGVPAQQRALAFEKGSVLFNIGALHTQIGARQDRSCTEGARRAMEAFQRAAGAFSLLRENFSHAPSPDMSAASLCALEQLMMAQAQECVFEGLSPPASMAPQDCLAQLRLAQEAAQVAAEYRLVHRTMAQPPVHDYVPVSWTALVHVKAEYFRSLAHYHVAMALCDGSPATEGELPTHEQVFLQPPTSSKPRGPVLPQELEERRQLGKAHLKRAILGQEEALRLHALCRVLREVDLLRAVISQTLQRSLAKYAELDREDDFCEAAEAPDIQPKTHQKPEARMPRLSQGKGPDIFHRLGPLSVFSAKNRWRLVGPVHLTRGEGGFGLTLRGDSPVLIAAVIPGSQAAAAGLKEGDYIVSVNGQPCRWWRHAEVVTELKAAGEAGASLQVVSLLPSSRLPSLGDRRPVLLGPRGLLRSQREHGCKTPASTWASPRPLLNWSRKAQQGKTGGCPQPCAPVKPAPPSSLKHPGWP
B2: STAM-binding protein (Homo sapiens), O95630 (parent)
chain: MSDHGDVSLPPEDRVRALSQLGSAVEVNEDIPPRRYFRSGVEIIRMASIYSEEGNIEHAFILYNKYITLFIEKLPKHRDYKSAVIPEKKDTVKKLKEIAFPKAEELKAELLKRYTKEYTEYNEEKKKEAEELARNMAIQQELEKEKQRVAQQKQQQLEQEQFHAFEEMIRNQELEKERLKIVQEFGKVDPGLGGPLVPDLEKPSLDVFPTLTVSSIQPSDCHTTVRPAKPPVVDRSLKPGALSNSESIPTIDGLRHVVVPGRLCPQFLQLASANTARGVETCGILCGKLMRNEFTITHVLIPKQSAGSDYCNTENEEELFLIQDQQGLITLGWIHTHPTQTAFLSSVDLHTHCSYQMMLPESVAIVCSPKFQETGFFKLTDHGLEEISSCRQKGFHPHSKDPPLFCSCSHVTVVDRAVTITDLR
B3: Mediator of RNA polymerase II transcription subunit 18 (Homo sapiens), Q9BUE0 (parent)
chain: MEAPPVTMMPVTGGTINMMEYLLQGSVLDHSLESLIHRLRGLCDNMEPETFLDHEMVFLLKGQQASPFVLRARRSMDRAGAPWHLRYLGQPEMGDKNRHALVRNCVDIATSENLTDFLMEMGFRMDHEFVAKGHLFRKGIMKIMVYKIFRILVPGNTDSTEALSLSYLVELSVVAPAGQDMVSDDMKNFAEQLKPLVHLEKIDPKRLM
partner: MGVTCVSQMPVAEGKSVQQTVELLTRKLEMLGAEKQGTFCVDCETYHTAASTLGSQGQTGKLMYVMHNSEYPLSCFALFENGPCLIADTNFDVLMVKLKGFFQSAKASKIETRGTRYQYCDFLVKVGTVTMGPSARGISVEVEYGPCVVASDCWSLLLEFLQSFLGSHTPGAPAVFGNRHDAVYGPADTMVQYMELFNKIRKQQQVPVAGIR
B4: Leukocyte receptor cluster member 1 (Homo sapiens), Q96BZ8 (parent)
chain: MNILPKKSWHVRNKDNVARVRRDEAQAREEEKERERRVLLAQQEARTEFLRKKARHQNSLPELEAAEAGAPGSGPVDLFRELLEEGKGVIRGNKEYKEEKRQEKERQEKALGILTYLGQSAAEAQTQPPWYQLPPGRGGPPPGPAPDEKIKSRLDPLREMQKHLGKKRQHGGDEGSRSRKEKEGSEKQRPKEPPSLDQLRAERLRREAAERSRAEALLARVQGRALQEGQPEEDETDDRRRRYNSQFNPQLARRPRQQDPHLTH
B5: F-box/WD repeat-containing protein 1A (Homo sapiens), Q9Y297 (parent)
chain: MDPAEAVLQEKALKFMCSMPRSLWLGCSSLADSMPSLRCLYNPGTGALTAFQNSSEREDCNNGEPPRKIIPEKNSLRQTYNSCARLCLNQETVCLASTAMKTENCVAKTKLANGTSSMIVPKQRKLSASYEKEKELCVKYFEQWSESDQVEFVEHLISQMCHYQHGHINSYLKPMLQRDFITALPARGLDHIAENILSYLDAKSLCAAELVCKEWYRVTSDGMLWKKLIERMVRTDSLWRGLAERRGWGQYLFKNKPPDGNAPPNSFYRALYPKIIQDIETIESNWRCGRHSLQRIHCRSETSKGVYCLQYDDQKIVSGLRDNTIKIWDKNTLECKRILTGHTGSVLCLQYDERVIITGSSDSTVRVWDVNTGEMLNTLIHHCEAVLHLRFNNGMMVTCSKDRSIAVWDMASPTDITLRRVLVGHRAAVNVVDFDDKYIVSASGDRTIKVWNTSTCEFVRTLNGHKRGIACLQYRDRLVVSGSSDNTIRLWDIECGACLRVLEGHEELVRCIRFDNKRIVSGAYDGKIKVWDLVAALDPRAPAGTLCLRTLVEHSGRVFRLQFDEFQIVSSSHDDTILIWDFLNDPAAQAEPPRSPSRTYTYISR
B6: Carbonyl reductase [NADPH] 3 (Homo sapiens), O75828 (parent)
chain: MSSCSRVALVTGANRGIGLAIARELCRQFSGDVVLTARDVARGQAAVQQLQAEGLSPRFHQLDIDDLQSIRALRDFLRKEYGGLNVLVNNAAVAFKSDDPMPFDIKAEMTLKTNFFATRNMCNELLPIMKPHGRVVNISSLQCLRAFENCSEDLQERFHSETLTEGDLVDLMKKFVEDTKNEVHEREGWPNSPYGVSKLGVTVLSRILARRLDEKRKADRILVNACCPGPVKTDMDGKDSIRTVEEGAETPVYLALLPPDATEPQGQLVHDKVVQNW
B7: Isoform 6 of F-box only protein 11 (Homo sapiens), Q86XK2-6 (parent)
chain: MVAEESGPGAQNSPYQLRRKTLLPKRTACPTKNSMEGASTSTTENFGHRAKRARVSGKSQDLSAAPAEQYLQEKLPDEVVLKIFSYLLEQDLCRAACVCKRFSELANDPILWKRLYMEVFEYTRPMMHPEPGKFYQINPEEYEHPNPWKESFQQLYKGAHVKPGFAEHFYSNPARYKGRENMLYYDTIEDALGGVQEAHFDGLIFVHSGIYTDEWIYIESPITMIGAAPGKVADKVIIENTRDSTFVFMEGSEDAYVGYMTIRFNPDDKSAQHHNAHHCLEITVNCSPIIDHCIIRSTCTVGSAVCVSGQGACPTIKHCNISDCENVGLYITDHAQGIYEDNEISNNALAGIWVKNHGNPIIRRNHIHHGRDVGVFTFDHGMGYFESCNIHRNRIAGFEVKAYANPTVVRCEIHHGQTGGIYVHEKGRGQFIENKIYANNFAGVWITSNSDPTIRGNSIFNGNQGGVYIFGDGRGLIEGNDIYGNALAGIQIRTNSCPIVRHNKIHDGQHGGIYVHEKGQGVIEENEVYSNTLAGVWVTTGSTPVLRRNRIHSGKQVGVYFYDNGHGVLEDNDIYNHMYSGVQIRTGSNPKIRRNKIWGGQNGGILVYNSGLGCIEDNEIFDNAMAGVWIKTDSNPTLRRNKIHDGRDGGICIFNGGRGLLEENDIFRNAQAGVLISTNSHPILRKNRIFDGFAAGIEITNHATATLEGNQIFNNRFGGLFLASGVNVTMKDNKIMNNQDAIEKAVSRGQCLYKISSYTSYPMHDFYRCHTCNTTDRNAICVNCIKKCHQGHDVEFIRHDRFFCDCGAGTLSNPCTLAGEPTHDTDTLYDSAPPIESNTLQHN

Variants of: B1
Conditions: with rhpn1_human RHPN1, Q8TCX5

effect of a mutation on the interaction	Variant
with no effect	A89V

Variants of: B2
Conditions: with grb2_human GRB2, P62993

effect of a mutation on the interaction	Variant
disrupting interaction strength	E167K
with no effect	R255H
disrupting interaction strength	Q155H

Variants of: B2
Conditions: with stam2_human STAM2, O75886

effect of a mutation on the interaction	Variant
with no effect	R255H
disrupting interaction strength	Q155H

Variants of: B3
Conditions: with med20_human MED20, Q9H944

effect of a mutation on the interaction	Variant
with no effect	M19V

Variants of: B4
Conditions: with cep70_human CEP70, Q8NHQ1
cep70_human CEP70, Q8NHQ1, sequence (Q8NHQ1 whole entry): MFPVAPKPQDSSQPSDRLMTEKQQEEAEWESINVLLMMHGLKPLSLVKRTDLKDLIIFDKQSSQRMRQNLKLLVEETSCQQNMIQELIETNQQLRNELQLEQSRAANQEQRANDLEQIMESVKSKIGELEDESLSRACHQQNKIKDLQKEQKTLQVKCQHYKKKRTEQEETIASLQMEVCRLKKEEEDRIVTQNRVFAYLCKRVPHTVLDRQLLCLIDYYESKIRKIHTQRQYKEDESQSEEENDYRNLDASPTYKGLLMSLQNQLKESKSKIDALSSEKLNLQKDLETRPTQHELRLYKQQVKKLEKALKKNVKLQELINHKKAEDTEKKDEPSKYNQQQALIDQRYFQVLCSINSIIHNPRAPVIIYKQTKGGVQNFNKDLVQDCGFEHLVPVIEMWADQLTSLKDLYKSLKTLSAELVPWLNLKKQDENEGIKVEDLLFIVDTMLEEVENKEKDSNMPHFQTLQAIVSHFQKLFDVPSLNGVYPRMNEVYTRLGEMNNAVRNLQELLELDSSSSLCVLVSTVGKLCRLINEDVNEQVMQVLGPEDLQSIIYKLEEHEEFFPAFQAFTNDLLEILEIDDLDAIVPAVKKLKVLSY

effect of a mutation on the interaction	Variant
with no effect	K97Q

Variants of: B4
Conditions: with trim1_human MID2, Q9UJV3
trim1_human MID2, Q9UJV3, sequence (Q9UJV3 whole entry): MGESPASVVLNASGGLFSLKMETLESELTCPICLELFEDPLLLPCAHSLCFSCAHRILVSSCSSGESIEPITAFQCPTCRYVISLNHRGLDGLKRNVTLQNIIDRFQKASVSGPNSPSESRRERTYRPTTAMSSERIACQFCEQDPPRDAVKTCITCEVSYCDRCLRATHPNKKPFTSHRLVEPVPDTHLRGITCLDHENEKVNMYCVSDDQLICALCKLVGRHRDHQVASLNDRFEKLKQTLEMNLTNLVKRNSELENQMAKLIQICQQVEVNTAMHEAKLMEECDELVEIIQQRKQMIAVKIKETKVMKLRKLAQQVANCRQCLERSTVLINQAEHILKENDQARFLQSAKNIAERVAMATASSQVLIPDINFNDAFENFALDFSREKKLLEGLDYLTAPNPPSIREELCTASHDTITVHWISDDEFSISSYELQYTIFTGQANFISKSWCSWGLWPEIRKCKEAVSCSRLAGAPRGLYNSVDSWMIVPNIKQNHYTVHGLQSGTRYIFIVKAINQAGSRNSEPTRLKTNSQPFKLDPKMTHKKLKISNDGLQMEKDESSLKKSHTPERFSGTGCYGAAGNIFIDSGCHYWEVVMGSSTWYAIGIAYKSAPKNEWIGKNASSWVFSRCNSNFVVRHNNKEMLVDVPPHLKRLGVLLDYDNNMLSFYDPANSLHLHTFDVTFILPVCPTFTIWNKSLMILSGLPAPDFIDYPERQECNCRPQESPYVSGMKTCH

effect of a mutation on the interaction	Variant
with no effect	K97Q

Variants of: B4
Conditions: with rop1a_human ROPN1, Q9HAT0
rop1a_human ROPN1, Q9HAT0, sequence (Q9HAT0 whole entry): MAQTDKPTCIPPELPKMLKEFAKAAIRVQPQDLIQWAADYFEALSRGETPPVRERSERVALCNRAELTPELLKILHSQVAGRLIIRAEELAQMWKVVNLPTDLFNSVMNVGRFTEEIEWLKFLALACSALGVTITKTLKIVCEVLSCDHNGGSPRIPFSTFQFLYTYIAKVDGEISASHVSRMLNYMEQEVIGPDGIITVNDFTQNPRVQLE

effect of a mutation on the interaction	Variant
with no effect	K97Q

Variants of: B4
Conditions: with ldoc1_human LDOC1, O95751
ldoc1_human LDOC1, O95751, sequence (O95751 whole entry): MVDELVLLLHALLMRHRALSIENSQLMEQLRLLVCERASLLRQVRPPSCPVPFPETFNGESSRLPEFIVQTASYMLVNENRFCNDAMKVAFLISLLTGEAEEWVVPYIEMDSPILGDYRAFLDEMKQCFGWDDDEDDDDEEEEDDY

effect of a mutation on the interaction	Variant
with no effect	K97Q

Variants of: B4
Conditions: with cc136_human CCDC136, Q96JN2
cc136_human CCDC136, Q96JN2, sequence (Q96JN2 whole entry): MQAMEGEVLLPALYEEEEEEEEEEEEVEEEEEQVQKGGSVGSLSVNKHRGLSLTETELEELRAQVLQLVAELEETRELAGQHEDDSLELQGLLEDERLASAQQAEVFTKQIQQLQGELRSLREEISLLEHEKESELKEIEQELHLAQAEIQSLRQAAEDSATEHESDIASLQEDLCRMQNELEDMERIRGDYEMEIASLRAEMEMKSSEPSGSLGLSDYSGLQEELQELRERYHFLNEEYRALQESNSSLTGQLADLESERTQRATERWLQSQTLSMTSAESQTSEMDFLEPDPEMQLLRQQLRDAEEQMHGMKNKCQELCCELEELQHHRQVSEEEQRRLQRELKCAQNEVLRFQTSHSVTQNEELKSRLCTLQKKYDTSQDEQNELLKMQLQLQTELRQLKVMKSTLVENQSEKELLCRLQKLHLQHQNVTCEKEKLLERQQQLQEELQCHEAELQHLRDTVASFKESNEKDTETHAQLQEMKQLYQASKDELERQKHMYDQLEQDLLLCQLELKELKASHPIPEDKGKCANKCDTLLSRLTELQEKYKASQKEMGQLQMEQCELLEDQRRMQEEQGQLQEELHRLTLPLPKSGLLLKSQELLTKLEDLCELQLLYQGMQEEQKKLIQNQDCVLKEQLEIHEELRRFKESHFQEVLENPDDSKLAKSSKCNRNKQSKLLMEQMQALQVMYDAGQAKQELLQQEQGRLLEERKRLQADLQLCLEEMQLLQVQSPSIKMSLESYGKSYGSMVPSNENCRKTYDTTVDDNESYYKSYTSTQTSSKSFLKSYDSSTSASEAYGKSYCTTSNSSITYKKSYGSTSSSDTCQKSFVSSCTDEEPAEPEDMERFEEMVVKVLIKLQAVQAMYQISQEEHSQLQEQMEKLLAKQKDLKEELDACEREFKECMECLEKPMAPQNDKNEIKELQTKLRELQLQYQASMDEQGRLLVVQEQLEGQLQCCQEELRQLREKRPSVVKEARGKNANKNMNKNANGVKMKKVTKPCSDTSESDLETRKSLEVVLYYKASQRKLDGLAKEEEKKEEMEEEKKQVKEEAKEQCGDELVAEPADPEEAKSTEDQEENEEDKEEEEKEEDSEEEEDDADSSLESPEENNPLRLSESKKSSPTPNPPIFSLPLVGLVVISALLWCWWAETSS

effect of a mutation on the interaction	Variant
disrupting interaction strength	R256C

Variants of: B5
Conditions: with tacc1_human TACC1, O75410
tacc1_human TACC1, O75410, sequence (O75410 whole entry): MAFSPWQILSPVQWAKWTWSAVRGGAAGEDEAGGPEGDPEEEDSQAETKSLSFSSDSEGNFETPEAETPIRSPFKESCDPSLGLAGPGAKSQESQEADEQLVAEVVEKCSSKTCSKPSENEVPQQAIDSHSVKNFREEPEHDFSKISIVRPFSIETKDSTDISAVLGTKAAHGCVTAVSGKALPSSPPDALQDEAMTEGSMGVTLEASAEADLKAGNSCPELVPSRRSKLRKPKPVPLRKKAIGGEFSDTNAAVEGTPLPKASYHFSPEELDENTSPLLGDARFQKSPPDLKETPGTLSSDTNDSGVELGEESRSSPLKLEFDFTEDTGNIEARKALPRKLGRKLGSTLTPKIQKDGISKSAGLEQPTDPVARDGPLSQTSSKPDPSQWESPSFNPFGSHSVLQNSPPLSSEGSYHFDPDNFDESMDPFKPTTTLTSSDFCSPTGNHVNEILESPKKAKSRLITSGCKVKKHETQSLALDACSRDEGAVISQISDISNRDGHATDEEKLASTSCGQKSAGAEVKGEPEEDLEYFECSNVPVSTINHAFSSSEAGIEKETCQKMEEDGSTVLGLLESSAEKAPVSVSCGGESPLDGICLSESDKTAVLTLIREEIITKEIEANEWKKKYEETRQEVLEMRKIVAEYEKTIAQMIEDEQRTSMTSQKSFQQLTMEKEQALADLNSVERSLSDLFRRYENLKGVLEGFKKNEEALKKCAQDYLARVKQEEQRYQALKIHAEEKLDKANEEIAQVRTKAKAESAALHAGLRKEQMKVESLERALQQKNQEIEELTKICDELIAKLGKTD

effect of a mutation on the interaction	Variant
disrupting interaction strength	T414A
disrupting interaction strength	I439V
with no effect	P592H
with no effect	R594H
with no effect	L8M
with no effect	T601S

Variants of: B6
Conditions: with sdcb1_human SDCBP

effect of a mutation on the interaction	Variant
with no effect	P131S
with no effect	V244M

Variants of: B7
Conditions: with skp1_human SKP1, P63208
skp1_human SKP1, P63208, sequence (P63208 whole entry): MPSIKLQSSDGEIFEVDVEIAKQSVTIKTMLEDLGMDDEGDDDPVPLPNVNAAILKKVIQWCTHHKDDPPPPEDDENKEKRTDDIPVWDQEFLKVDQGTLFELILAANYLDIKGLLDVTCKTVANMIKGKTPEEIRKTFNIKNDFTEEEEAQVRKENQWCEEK

effect of a mutation on the interaction	Variant
with no effect	A703T
with no effect	T532S
with no effect	D507N
